Reference: patent US20130079286A1 (Pieris, published 2013)

Molecular target: T1, MBP-Aβ40 fusion protein
T1 construct: the entry may be a nucleic acid; Biotin-labelled in the capture ELISA, unlabeled in the direct ELISA and SPR; also called MBP-Abeta40
Assay: SPR (Biacore), MBP-Aβ40 amine-coupled; same experiment as the 1st table, row 20, column 2, printed with more digits
Procedure: FIG. 8 depicts the kinetic real time analysis of Lcn2 muteins S1-A4 (A) and US7 (B) measured on a Biacore instrument at a flow rate of 10 μl/min. The MBP-Aβ40 fusion protein was coupled via amine chemistry on a CMD 200I chip (ΔRU=1455) and each of the purified Lcn2 muteins was applied in a series at different concentrations. The measured signal is shown as a grey line whereas the curve fit is depicted as a black line in each case.
Real time analysis of Lcn2 muteins was performed on a Biacore X system (Biacore, Uppsala, Sweden) using PBS/T (PBS containing 0.005% (v/v) Tween 20) as running buffer. A 50 μg/mL solution of MBP-Aβ40 from Example 2 in 10 mM Na-acetate, pH 4.5 was immobilized onto a […] chip (Xantec, Düsseldorf, Germany) using standard amine coupling chemistry, resulting in a ligand density of 1455 resonance units (RU). […] The sensorgrams were corrected by subtraction of the corresponding signals measured for the control channel, which had been activated and blocked with ethanolamine. […] During this step the kₒₙ and koff rates were fitted globally, while the maximum response difference Rₘₐₓ was fitted locally for each curve.

B1: Lcn2 mutein S1-A4 (designed binder)
chain: QDSTSDLIPAPPLSKVPLQQNFQDNQFHGKWYVVGVAGNYTLREDKDPLKMYATIYELKEDKSYNVTSVGFRLKKCNYKIRTFVPGSQPGEFTLGIIKSQPGMTSYLVRVVSTNYNQHAMVFFKTVGQNREMFNITLYGRTKELTSELKENFIRFSKSLGLPENHIVFPVPIDQCIDG
Kd: 1.74 nM
